One assay has as its target polysialylated NCAM. Nature of the assay: SPR (Biacore) equilibrium binding to NCAM. More on the design: species or system chicken. To be noted: antibody on Protein A sensor chip; NCAM 0.25-250 nM; Hill slope analysis in Prism. As to the method:
FIGS. 5A-5D depict binding affinity analysis of mo735 and ch735 antibodies. Binding kinetics for the mo735 and ch735 antibodies were monitored using Biacore. Commercial mo735 or recombinant purified ch735 was immobilized at low concentrations on a Biacore Protein A sensor chip and the response to different concentrations of NCAM (ranging from 0.25-250 nM) was compared with an empty flow cell. FIGS. 5A-5B depicts representative sensorgram data for mo735 (FIG. 5A) and ch735 (FIG. 5B).
Equilibrium binding-affinity measurements were made by SPR analysis on a Biacore 3000 system. Antibodies mo735 and ch735 were bound to the surface of a Protein A sensor chip with a target level of 1700 response units (RUs). Serial dilutions of the antigen, chicken NCAM, prepared in 10 mM HEPES, pH 7.4, 150 mM NaCl, 3 mM EDTA, 0.005% polysorbate-20 (HBS-EP buffer, GE Healthcare) at concentrations ranging from 0.25 to 250 nM were injected over the chip using the same buffer at a flow rate of 20 μl/min (10 min injection time, 2 min stabilization time, 20 min dissociation). The surface of the chip was regenerated between the injections of each serial dilution with 10 mM glycine, pH 1.5 (30 sec injection time, 3 min stabilization time). Kinetic parameters were determined by fitting the maximum response values for each concentration using the Hill slope non-linear regression analysis in Prism software.
A general note: In SPR one partner is held on a chip, and binding of the other changes the refractive index at the surface.

For assay [1], the system named is polySia expressed on the surface of different cancer cell lines. Kind of assay: Flow cytometric analysis of antibody binding to cancer cell lines. The class given is cell-based, human. From the text: FIGS. 6A-6D depict immunostaining of antibody ch735 to polySia-expressing cancer cells. […] Data are the geometric mean fluorescence intensity (MFI), with the values reported as the average of three replicates and the error represented as the standard deviation of the mean. […] Cells were stained with ch735, wheat germ agglutinin (WGA) to stain the cell membrane, and Hoescht to stain nuclei. Scale bars, 10 μm. […] Scale bars, 200 μm.
FIGS. 7A-7B depict binding of antibody ch735 and mo735 to polySia-expressing cancer cells. Representative fluorescence histograms for ch735 (FIG. 7A) and mo735 (FIG. 7B) binding to a panel of cancer cell lines measured by flow cytometry are shown. Histograms represent antibody binding to untreated cells, antibody binding to endoN-treated cells, and anti-human or anti-mouse secondary only control, respectively.
FIGS. 9A-9B depict binding of antibody mo735 to polySia-expressing cancer cells. […] Data are the geometric mean fluorescence intensity (MFI), with the values reported as the average of three replicates and the error represented as the standard deviation of the mean. […] Cells were stained with ch735, wheat germ agglutinin (WGA), and nuclei were stained with Hoescht. Scale bars, 10 μm.
Cancer cells were trypsinized and collected with media, followed by three washes in PBS. To remove polySia, cells were treated with endoN at 3 μg/mL in PBS for 1 h at room temperature. The cells are resuspended in 4% paraformaldehyde (PFA), fixed at room temperature with constant agitation for 10 min, and then washed two times with PBS, and two times with 0.5% BSA in PBS. The cells were collected and resuspended to 1 million cells/100 μL and pipetted into a round bottom 96-well plate. The cells were pelleted in the 96-well plate and resuspended in 0.5% BSA in PBS containing mo735 or ch735 (5 μg/mL) and incubated for 30 min at room temperature with constant agitation. Cells were washed three times with 0.5% BSA in PBS and resuspended in anti-mouse IgG-Alexa-Fluor 488 (AF488) secondary or anti-human IgG-AF488 secondary (ThermoFisher Scientific) at a 1:200 dilution for 30 min at room temperature in the dark with constant agitation. Cells were washed three times, resuspended in 500 μL of 0.5% BSA in PBS, and analyzed on a BD FACSCalibur flow cytometer using Cell Quest Pro software (BD Biosciences).
(A flow cytometer gives signals particle by particle.)

A short description of assay [2]: CFG glycan microarray specificity profiling. The class given is binding. To be noted: for glycan specificity from microarrays: CFG glycan array (v5.3 mo735, v5.4 ch735) and glycoprotein array. As to the method: (§1) FIGS. 2A-2D depict binding specificity and affinity of the ch735 antibody. […] ELISA signals (Abs370) were obtained with anti-human IgG secondary antibodies. […] Antibodies were assayed at 1 μg/mL and detected with anti-human IgG secondary antibodies. […] Antibodies were assayed at 10 μg/mL and detected with anti-mouse IgG secondary antibodies.
(§2) FIGS. 3A-3D depict binding specificity and affinity of mo735 antibody. […] ELISA signals (Abs370) were obtained with anti-mouse IgG secondary antibodies. […] Antibodies were assayed at 1 μg/mL and detected with anti-mouse IgG secondary antibodies. […] Antibodies were assayed at 10 μg/mL and detected with anti-mouse IgG secondary antibodies.
Specificity of mo735 and ch735 was determined using printed glycan arrays 5.3 and 5.4 at the CFG. Both antibodies were analyzed at 10 μg/mL with 5 μg/mL of anti-mouse or anti-human Alexa-Fluor 647 (AF647)-conjugated secondary, respectively. Specificity of mo735 (1 μg/mL) and ch735 (10 μg/mL) was also assessed on a custom glycoprotein array that contained ˜40-50 glycoproteins including chicken brain NCAM and endoN-treated chicken brain NCAM.

For assay [3], the system named is chicken brain-derived polysialylated neural cell adhesion molecule (NCAM). Kind of assay: ELISA with immobilized NCAM. The class given is binding. As to the method:
as §1, §2
Costar 96-well ELISA plates (Corning) were coated overnight at 4° C. with 50 μl of 1 μg/mL chicken brain NCAM (Millipore) or endoN-treated NCAM in PBS. Chicken NCAM (Millipore, AG265) was digested with 1.5 μg of endoN per 50 μg of NCAM overnight at 37° C. After blocking with 5% (w/v) milk in PBS for 1-3 h at room temperature or overnight at 4° C., ELISA plates were washed three times with wash buffer (PBST with 0.3% BSA) and incubated with serially diluted purified ch735, mo735 (Absolute Antibody), or ab5032 (Millipore) for 1 h at room temperature. Antibody samples were quantified with a Nanodrop. […]
Background: ELISA stands for enzyme-linked immunosorbent assay.

Where [4] appears, read: CFG microarray version 5.4, 10 μg/mL.

B1: mo735: well-known mouse-derived IgG2a monoclonal antibody 735 targeting polysialic acid (antibody, V domains shown)
VH: QIQLQQSGPELVRPGASVKISCKASGYTFTDYYIHWVKQRPGEGLEWIGWIYPGSGNTKYNEKFKGKATLTVDTSSSTAYMQLSSLTSEDSAVYFCARGGKFAMDYWGQGTSVTVSS
VL: DVVMTQTPLSLPVSLGDQASISCRSSQSLVHSNGNTYLYWYLQKPGQSPKPLIYRVSNRFSGVPDRFSGSGSGTDFTLKISRVEAEDLGVYFCFQGTHVPYTFGGGTRLEIK
Turning to B1, the Kd – broadly, a measure of binding affinity in units of concentration – on polysialylated NCAM came to 10.2 nM. Moreover, the “polySia binding on panel of cell lines compared with ch735” value in assay [1] (staining of each of the cell lines) is reported as “Identical polySia binding results”. For the same molecule, the “glycan specificity from microarrays” value in assay [2] is given as “Nearly identical results”. The “ELISA binding to NCAM” value in assay [3] is reported as “specifically recognize polySia”.

B2: ch735: chimeric human IgG1 polySia-specific mAb made by swapping variable regions of mouse mAb 735 (antibody, V domains shown)
VH: QIQLQQSGPELVRPGASVKISCKASGYTFTDYYIHWVKQRPGEGLEWIGWIYPGSGNTKYNEKFKGKATLTVDTSSSTAYMQLSSLTSEDSAVYFCARGGKFAMDYWGQGTSVTVSS
VL: DVVMTQTPLSLPVSLGDQASISCRSSQSLVHSNGNTYLYWYLQKPGQSPKPLIYRVSNRFSGVPDRFSGSGSGTDFTLKISRVEAEDLGVYFCFQGTHVPYTFGGGTRLEIK
At polysialylated NCAM, B2 returned a Kd of 4.79 nM. The “surface binding by flow cytometry” value is listed as “No significant binding above background” in assay [1] (A549 and MCF7 cells); “lower intensity” in assay [1] (NCI-H69, NCI-H82 and SH-SY5Y cells); “not recognized” in assay [1] (SKOV3 and K562 cells); “bound most avidly” in assay [1] (SW2 cells). In assay [1] (polySia-positive cell lines, endoN-treated), the “surface binding following endoN treatment” value is “lack of surface binding”. In assay [2], the “glycan specificity from microarrays” value was “α2,8-linked sialic acid with a degree of polymerization (DP) of three or greater”. Moreover, the “glycan array binding to glycan Chart ID #224” value in assay [2] (setting [4]) was “lesser but still significant level of binding above background”. For the same molecule, in assay [2] (setting [4]), the “glycan array binding to glycans #225 and 226” value is recorded as “not”. In assay [2] (setting [4]), the “glycan array binding to tetra-sialic acid glycan Chart ID #223” value is recorded as “strong preference”. Further, the “ELISA binding to NCAM” value in assay [3] is reported as “specifically recognize polySia”.

The record behind these values is patent US20200277405A1, “COMPOSITION FOR ANTIBODY-DRUG CONJUGATE DIRECTED AGAINST TUMOR-CELL ASSOCIATED POLYSIALIC ACID” (Cornell University, priority 2019, published 2020).
